The DeepSol protein solubility set

Assay: soluble on expression in E. coli; label from the status in PepcDB or PDB records

Sequence | soluble on expression in E. coli
MEQTLRVSVFGATGYTGIELLRSLLTHPHFEVKNLISQSYKGKKVREVLPFFSNTYISEIEFLEEPVEDYELAFLCLPHEVSYEIVPKLLSQGKKVVDLSGAYRIKSPKAYEEFYGFKHEREDILQRAVYGLPEVFREEIKNSDLVANPGCYPTATLLAIYPFLKERVGIESVIVHALSGVSGAGRKPKQQFHFPEMTENFFNYAVEKHRHTPEMEDVIRRVYGREVKVRFTPTVVPTSRGMISTVYLKSEKLNVKELFKEVYEDEIFVKVVDEPPQTKWVLGTNYCFIYPHYDERTGYYVIISAIDNLGKGASLQAVQNANLMFGLAEDDGLLQLPVFP | soluble
MKMKILGISFGTKNGNNDTMCKVALKGAKEAGAEVEFIQMSSINIKHCTGCCACVKTLLSGKGSMCVLKDDFEWLLDKMKDADGIVVSDPIFEEGASGLFHTIMDRFGPRADRGNNIIGTKVAEAIGGKIPDSRMLNDKVISFMGIGGSDWGTRVQCEHAMLALIPMWKVIDNAWFPWAKELVMDDTRLVQVHQIGLNIVEAAKDFEKASYQGEEGVCPHCHNRLFYLEPGTKKAICALCGIVGELDTISGKTIFSFPEEQLGHAHDTLPGKFIHGDDIKKMEGHYAEVRKTQEFKERKTSYNFIETLTKEKQAGLEHHHHHH | not soluble
MSLAQISSLFVTRLYHAPLSDHGPAIDAEEMESSCYAIAEDDEAGQGWCEENGYPGYTSYASLTDLPWRFPIFADLVKSLDAHVAAFAEDLEFDLDGRALELEDLWINILPEGGSHASHIHPHSVISGTTYVSMPGGTSALKLEDPRHAMMMAAPARRKTARDELRQFIYVTPAVGDVLLWESWLRHEVPMNMSEDDRISVSFNYRWAEGHHHHHH | soluble
MTFMSEVKFETVEQKASYGIGLQMGQQLAGSGLEGLNVAAIAAGIATALVGEQPAISIDEINQALHAIHMRAEEARQEAAKVAASEGEAFLKDNALRPEVTVLESGLQYEVLVEGNGAIPTSDKSVRVHYHGQLVDGTVFDSSVSRGQPAEFPVTGVIRGWVEALQLMPVGSKWKLYIPHNLAYGERGAGAAIPPFAALVFEVELLDIL | not soluble
MGHHHHHHSHHPFVRSAKGVSILRDLINEAMDVKLKRQESQQREVDQDDEENSEEDEMDSGTMVRAVGDEMGTVRVASTMTDGANTMIEHDDTLPSQLGTMVINAEDEEEEGTMKRRDETMQPAKPSFLEYFEQKEKENQINSFGKSVPGPLKNSSDWKIPQDGDYEFLKSWTVEDLQKRLLALDPMMEQEIEEIRQKYQSKRQPILDAIEAKKRRQQNF | soluble
PFEGNRVDIYTGGYSKLQALLRELQKARLHIHMEYYIFEDDPVGRLVRDVLIEKAREGVEVRVIYDDVGCWHVPHRFFEEMRDAGIEVRSFLKVRFPLFTSKVNYRNHRKIVVIDGRIGFIGGMNLAERYMRGFSWGIWRDTHILLEGKAVHGLQTAFLLDWYFVDRTLITASRYFPKIEAYGNSLVQIVTSEP | not soluble
MSLNKAMQEVNLEDSLKFFEQAANQPAALLKVQTQWWEQQLQIWQKVVLESKIQSIMEAEKGDKRFSHEAWQQDPFFNFIKQSYLLFSKTYLDTINAIEGLDEKAKERILFFSRQMINALSPSNFIATNPELLRLTLEKNGENLIAGLEQLKEDVASSADILKIRMTNNNAFRLGEDVANTPGEVVFKNEVFELIQYKPLTEQVAVTPLLIVPPFINKYYILDLREKNSMVRWLVEQGHSVFMISWRNPGAAQAQLNFEDYVLEGVVKAVNAIESITGQEQINAAGYCIGGTVLATTIAYYAAKRMKKRIKTASFFTTLLDFSQPGEVGAYINDTIIRAIELQNNAKGYMDGRSLSVTFSLLRENSLYWNYYVDNYLKGQSPVDFDLLYWNSDSTNVAGACHNFLLRELYLENKLVQDKGVKVGGVWIDLDKIKVPSYFISTKEDHIALWQGTYRGALRTGGNKTFVLGESGHIAGIVNHPDKRKYGYWVNDTLDDSAEDWLETAQHREGSWWVHWNEWLNGFADGSKVEPYPLGNADYPVLYSAPGEYVKQVLPIQEEGHHHHHH | soluble
MGSDKIHHHHHHMKSSQPFIYEAHAARVVFGAGSSSQVAAEVERLGAKRALVLCTPNQQAEAERIADLLGPLSAGVYAGAVMHVPIESARDATARAREAGADCAVAVGGGSTTGLGKAIALETGMPIVAIPTTYAGSEVTPVYGLTEAGTKRTGRDPRVLPRTVIYDPALTVGLPRGLSVTSALNAIAHAAEGLYARDANPVMSLMAEEGIRALAAGIPAVFNDPADLDARSQCLYGAWLCGTVLGGVGMALHHKLCHTLGGSFNLPHAETHTIVLPHALAYNAAAVPEAMARIRRATGAGEQSAAATLFDLAQRHGAPVALRDIGMREEDLDRAADIALASPYWNPRPIEREPIRALLQAAYEGVRPD | not soluble
MSLEKEYEYLVPPDDYLAAGVHIGTQIKTGDMKKFIFKVRQDGLYVLDIRKLDERIRVAAKFLSRYEPSKILLVAARQYAHKPVQMFSKVVGSDYIVGRFIPGTLTNPMLSEYREPEVVFVNDPAIDKQAVSEATAVGIPVVALCDSNNSSADVDLVIPTNNKGRRALAIVYWLLAREIAKIRGQDFTYSIEDFEAELEGGSHHHHHH | soluble
SNAMPQQKNFVTMPAQHQNKQPGIESLMNPLPQFEDPNYKGSEKLKGKNVLITGGDSGIGRAVSIAFAKEGANIAIAYLDEEGDANETKQYVEKEGVKCVLLPGDLSDEQHCKDIVQETVRQLGSLNILVNNVAQQYPQQGLEYITAEQLEKTFRINIFSYFHVTKAALSHLKQGDVIINTASIVAYEGNETLIDYSATKGAIVAFTRSLSQSLVQKGIRVNGVAPGPIWTPLIPSSFDEKKVSQFGSNVPMQRPGQPYELAPAYVYLASSDSSYVTGQMIHVNGGVIVNG | soluble
MVRPPPFEFRPARPPGTRALQLEVITNIIWENAPMADLDALRSRFAHALAGATAPGATAGAGPGSGPDPAPYADNLLARWQEPQRRYHTLAHLTAVLDRVDVLAEHADDVAVVRLAAWFHDAVYQPDRSENEERSARLAERALPEAGVPAAKTAEVARLVRLTVTHAPAGDDRDGQVLCDADLAVLASPPSAYAAYTAAVREEYHFVPNEAFREGRAAILRQLLDLPSLFHTPYGRQEWEATARHNLTGELEMLSLPDTPDVLEHHHHHH | not soluble
MMHMDESRKEIIREEAKRAKAIAVEKYKAGDFAGAKEFALKAKQINPALGGLRRLNALLDVCMGFQKQVNGEVDWYDVLAVERTADFITIFNRYSTLAIDISLDRDESVGSGVKEALKILTDASKYFLERRELLPSRRVSGPINQLSRISCEGSKQKEPPPTNLLHVSKLTRMSEDAEIRHDISPNRLRSALARKATSVIKLSLETFVCSSPHNNVGAAEETDNKVMEE | soluble
MGSDKIHHHHHHMEASSGHQLMAETLGKFVSLVSKRLPDDVMAKLTELKGIETEPLAKSLYACMFENMEKAESLNRPTCQDTGVIQFFVRAGAKFPYLGELRGILKEATILSTKQAPLRLNAVEPFDEKNTGTNVGTKVPWIEWDIVSDDDSVEIEVYMAGGGCSLPGRSIVLPPLAGYEGAVKFVFDTIVEWGINACPPLTVGVGIGTCSTSAAKLSKMAMLRKLGSSNPHPRAAEMERRIQEGLDAIGLGPQGISGHRSVLGVHVEGMAHHPSVLGVGVTVGCWANRHGIIQFNKNLQYTMISHQGVEL | not soluble
MLSLAFGVNDIYEYEGKEYKLDLAFDNVLRVIDLTEDNSLSDVFRANLAIDVLFADDMPWPRSNEEDEYANIEEKSLVLIDIFTNYIVKENDDGLLYDIDGNKMPSATNNEDAEEIASYSLTQDADYIYASFLQDYNIDLLDSRGKMHWYKFRALLESLRDDTTIKTIIGIRQAELPSGKGTEKERNELIKLKNRYKLKD | not soluble
MAHHHHHHMDTSARRCFVEVYTDGCDEPRLLQLEPTVKFHNVLRRFDKDGDLYWGDHRIDPQTTPVAVGMDCGVDKANTLWFIPALPRAKPCGVSRVDSTAPLGSPPPVDATEGPALRPARGTSLPAYFDDRAAPWHSSGDHAARGSLIRAWMASASAATTPSWYSRPRLLSPVPLSLPRSAVRVPHTQVQPPSGMPTDPIMHAAGGSRHTGAPVAALEAHGGEKIAPVRRLCAAPAPRAPSPPHSTVPVRRNAPVCIDPHVLVDDTSDAVEALQTELRHLSSEMRAMRLRNPLDYNSVTPMRQVVVRPAGMDAAPAIASPICLSMAEPSVEELATELHDKQMHRLYKQRHLYLTHDFHV | not soluble
MARGIWGVDSAQVVTDQLFQCVRTELGYPKFWGRYLSEVPNVSEGLTRDEIVRIRNYGVKVLPIYNAFREAVGYANGQVAARNAVFHARRLGIPKNKLLFANIEDFFAVDAAWIAAWVETLYPTGYRPGLYADPTKGDFAAAYCEAVSRNNQVAVQAVIWSAAPRPGTTKEQKAPRYQPAAPPCSANVWVWQYGRDAEVCPVDTNLADRRLLDFLY | soluble
SVSPLKTRCCSPSSQQQASEAREIEQPSTVWELDFYSRPVYGKDNKRIWELIVVDESFLLCHVESVPNDMINSAELRKRVERLLEQVTVKPKVVKFSRMPMFNMISLALKDLGFEVKPSRRTYRLYHVLRDREANIYSKMPGYRSENTLSTSYLYSTERLPDALRGEKFAFCTADYSFLYELQSSDTIPYCDIFNTGDSILLEKELPGIIVYSERADSLASWTAGAEVSFIKFREEELELVLECGINSHYRLAKIAEDHRLVEEAKTFEQMKWHMKGFHFYAIQSLKETSGTSHIKGLWLLNDFMEQ | soluble
MQARRYLLRPAARLRRSRRIATAAPERLWLFDLDNTLHDTSHAIFPLIDRGMTEAVAETLAVDEATANRLRAEYWRRYGATVIGLVRHHGVDADAFLHRSHNFEVAPLVRAETALADKLRRLPGRKVLLTNAPLHYARAVLRHLGLLRQFDSIWAIEQMCMHGQFRPKPSDALLRYVLAREGVPAARAVLIEDTLDNLRSARRVGLRTVHVFHPGTPFARGHRQRPGYVDLRVNSVSDLLLRRRPLRG | not soluble
MGSDKIHHHHHHVLSNPSQVVLRNIELFESKNVLLINHECDLLATALLEDAAKVTTLALDFNHFQRIKSHENARLQCHFGHQLPSTQTFDAVVLFYPKSKSLAPYLLNLAGRHLIPGGELVIVGEKKGGIRSITKQLPDYFDGGIKLDNARHCMLYSSSLLSEAPEIKLSDWVKDYVLSTPQGELTICNLVGVFSEKRLDEGTELLLEHLPTLKGRVLDFGCGAGVITAALLKANPDLELECVDINAMALASCELTLAANGMQAKVYASDGLTQTQGMFDAIISNPPFHDGLDSTTEIATRFVQESEAQLKSGGIFQIVANRHLPYSDTIAKFFKTVNVAAENNKYKIYANRKA | not soluble
MSEEQKTISISELESMNIKQLYEIAKSLGIPRYTSMRKRDLIFAILKAQTESTGYFFGEGVLEIHPEGFGFLRRIEDNLLPSNDDIYISPSQIRKFNLNTGDIISGVIRKPKEGEKYFAMIKIEAINYRPVEAVNDRVNFDNLTPDYPRERFILETDPKIYSTRLIDLFAPIGKGQRGMIVAPPKAGKTTILKEIANGIAENHPDTIRIILLIDERPEEVTDIRESTNAIVIAAPFDMPPDKQVKVAELTLEMAKRLVEFNYDVVILLDSLTRLARVYNIVVPPSGKLLTGGVDPAALYKPKRFFGAARNTREGGSLTIIATALVETGSKMDEVIFEEFKGTGNMELVLSRQLANKRIFPAINLLLSGTRREELLLDEETLKKVWLLRRMLSAMTEEEGLTLILNKLSETSSNEEFLKLIDKEKARY | soluble
MTAPLIRVSRKRTADPHDALILHTKRAKHGGNPLVFTLYKAAGNDLELNGARVLDLPTQEHGMELADEENPLGFVKDEAVGLVGEVEKNVKKPAEQVSLNGRLLQPVTDGGGAAAGSSDDVVYDYYAIHEKRGNPEVVGNLEQDIEGADFRFAKRDELDLGDEDDSDGPPADDEDDSNDEDNWRNDYPDEESYDEDSDNGDPYGISEPDHWHAGEEAYSDESFHRRLQNMDLNDERYEAFYEGDETDEDAD | soluble
